18 sequences from the supplement of paper PMC10724198 can be followed below.

In series [1] the test system is Saccharomyces cerevisiae. The series is described as follows: protein stability index of tFT-peptide fusion (C-terminal peptide) (PSI (0-1 scale)); higher = more stable (slower turnover). As to the method:
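MPS profiling in S. cerevisiae of the tFT-X12 degron library: putative degron peptides plus stable controls, 12 aa, fused to the C-terminus of a sfGFP-mCherry timer. Cells are FACS-sorted into 8 mCherry/sfGFP bins and deep-sequenced. PSI runs from 0 (unstable) to 1 (stable). Backgrounds are wild type, das1Δ and doa10Δ at 30 °C, and wild type, das1Δ, cdc34-1 and cdc53-1 at 37 °C; 2-3 technical replicates each.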

In series [2] the test system is Saccharomyces cerevisiae. Described as above. The settings on record: genetic background: wild type; temperature: 30 C.
The mark [3] stands for this setting: genetic background: cdc34-1, temperature: 37 C.
Setting [4] is: genetic background: cdc53-1, temperature: 37 C.
Where [5] appears, read: genetic background: das1 deletion, temperature: 30 C.
Where [6] appears, read: genetic background: das1 deletion, temperature: 37 C.
Where [7] appears, read: genetic background: doa10 deletion, temperature: 30 C.
The mark [8] stands for this setting: genetic background: wild type, temperature: 30 C.
[9] abbreviates: genetic background: wild type, temperature: 37 C.

± gives the standard deviation of the averaged measurements.
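Further: PSI is a weighted mean of sequencing reads over stability bins, variants kept only with over 10 reads, mCherry proximal and sfGFP distal, peptide attached via GGGS linker.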

For VVVLFGRLVVIC, the protein stability index in the series with Saccharomyces cerevisiae [1] (setting [3]) amounted to 0.48 ± 0.01; with Saccharomyces cerevisiae [1] (setting [4]), 0.611 ± 0.019; with Saccharomyces cerevisiae [1] (setting [5]) it was 0.448 ± 0.033; with Saccharomyces cerevisiae [1] (setting [6]), 0.598 ± 0.017; with Saccharomyces cerevisiae [1] (setting [7]), 0.327 ± 0.0075; in the series on Saccharomyces cerevisiae [1] (setting [8]) it was 0.332 ± 0.029. The protein stability index in the series on Saccharomyces cerevisiae [1] (setting [9]) turned out to be 0.5402 ± 0.003; with Saccharomyces cerevisiae [2], 0.431 ± 0.048.
Turning to VVVYWGSLKRVC, the protein stability index with Saccharomyces cerevisiae [1] (setting [3]) came to 0.5772 ± 0.0046; with Saccharomyces cerevisiae [1] (setting [4]), 0.669 ± 0.012; with Saccharomyces cerevisiae [1] (setting [5]), 0.584 ± 0.02; in the series on Saccharomyces cerevisiae [1] (setting [6]) it was 0.7 ± 0.0057; in the series with Saccharomyces cerevisiae [1] (setting [7]), 0.104 ± 0.0089; in the series with Saccharomyces cerevisiae [1] (setting [8]) it was 0.117 ± 0.027. The figures for the protein stability index in the series on Saccharomyces cerevisiae [1] (setting [9]) and with Saccharomyces cerevisiae [2] were 0.289 ± 0.0064 and 0.263 ± 0.041, respectively.
As for VWFCCLFFCFFV, the protein stability index was 0.432 ± 0.021 in the series with Saccharomyces cerevisiae [1] (setting [3]); 0.448 ± 0.0086 in the series with Saccharomyces cerevisiae [1] (setting [4]); 0.378 ± 0.028 with Saccharomyces cerevisiae [1] (setting [5]); 0.47 ± 0.011 with Saccharomyces cerevisiae [1] (setting [6]); 0.4276 ± 0.0036 in the series with Saccharomyces cerevisiae [1] (setting [7]); 0.367 ± 0.012 in the series on Saccharomyces cerevisiae [1] (setting [8]). Besides, the protein stability index in the series on Saccharomyces cerevisiae [1] (setting [9]) was 0.41 ± 0.012; in the series on Saccharomyces cerevisiae [2], 0.404 ± 0.028.
With VWSWFVIYFFFC, the protein stability index in the series with Saccharomyces cerevisiae [1] (setting [3]) came out at 0.358 ± 0.025; in the series with Saccharomyces cerevisiae [1] (setting [4]), 0.388 ± 0.0079; with Saccharomyces cerevisiae [1] (setting [5]), 0.335 ± 0.029; in the series with Saccharomyces cerevisiae [1] (setting [6]), 0.497 ± 0.013; in the series with Saccharomyces cerevisiae [1] (setting [7]), 0.366 ± 0.02; in the series on Saccharomyces cerevisiae [1] (setting [8]), 0.324 ± 0.014. The protein stability index with Saccharomyces cerevisiae [1] (setting [9]) is 0.444 ± 0.02; with Saccharomyces cerevisiae [2] it was 0.368 ± 0.0054.
VYCTFLFAYTLP: the protein stability index in the series on Saccharomyces cerevisiae [1] (setting [3]) was determined as 0.556 ± 0.036; with Saccharomyces cerevisiae [1] (setting [4]), 0.591 ± 0.032; in the series with Saccharomyces cerevisiae [1] (setting [5]), 0.443 ± 0.015; with Saccharomyces cerevisiae [1] (setting [6]), 0.602 ± 0.0074; in the series with Saccharomyces cerevisiae [1] (setting [7]), 0.435 ± 0.0053; in the series with Saccharomyces cerevisiae [1] (setting [8]), 0.443 ± 0.015. Also, the protein stability index with Saccharomyces cerevisiae [1] (setting [9]) turned out to be 0.59 ± 0.0096; in the series with Saccharomyces cerevisiae [2], 0.483 ± 0.0062.
As for VYEVELSVRVTV, the protein stability index in the series on Saccharomyces cerevisiae [1] (setting [3]) was 0.552 ± 0.03; in the series with Saccharomyces cerevisiae [1] (setting [4]), 0.56 ± 0.013; with Saccharomyces cerevisiae [1] (setting [5]) it was 0.435 ± 0.026; with Saccharomyces cerevisiae [1] (setting [6]) it was 0.548 ± 0.0089; with Saccharomyces cerevisiae [1] (setting [7]), 0.404 ± 0.0053; in the series on Saccharomyces cerevisiae [1] (setting [8]), 0.447 ± 0.035. Further, the results for the protein stability index in the series with Saccharomyces cerevisiae [1] (setting [9]) and with Saccharomyces cerevisiae [2] were 0.51 ± 0.0073 and 0.522 ± 0.063, respectively.
With VYVVLGTVYVTY, the protein stability index with Saccharomyces cerevisiae [1] (setting [3]) is 0.195 ± 0.014; in the series with Saccharomyces cerevisiae [1] (setting [4]) it was 0.325 ± 0.013; in the series on Saccharomyces cerevisiae [1] (setting [5]), 0.194 ± 0.025; in the series on Saccharomyces cerevisiae [1] (setting [6]), 0.381 ± 0.0087; in the series with Saccharomyces cerevisiae [1] (setting [7]), 0.166 ± 0.0049; with Saccharomyces cerevisiae [1] (setting [8]), 0.187 ± 0.031. For the same sequence, the protein stability index came out at 0.362 ± 0.021 in the series with Saccharomyces cerevisiae [1] (setting [9]) and 0.273 ± 0.025 with Saccharomyces cerevisiae [2].
For the sequence WDPKISVFVLID, the protein stability index is 0.439 ± 0.056 in the series with Saccharomyces cerevisiae [1] (setting [3]); 0.53 ± 0.11 in the series with Saccharomyces cerevisiae [1] (setting [4]); 0.344 ± 0.024 in the series on Saccharomyces cerevisiae [1] (setting [5]); 0.55 ± 0.025 in the series with Saccharomyces cerevisiae [1] (setting [6]); 0.246 ± 0.013 in the series on Saccharomyces cerevisiae [1] (setting [7]); 0.291 ± 0.018 in the series with Saccharomyces cerevisiae [1] (setting [8]). In addition, the results for the protein stability index in the series with Saccharomyces cerevisiae [1] (setting [9]) and with Saccharomyces cerevisiae [2] were 0.479 ± 0.0098 and 0.403 ± 0.0096, respectively.
Turning to WFAHGLRHFRIL, the protein stability index in the series with Saccharomyces cerevisiae [1] (setting [3]) came to 0.653 ± 0.081; in the series on Saccharomyces cerevisiae [1] (setting [4]), 0.76058 ± 0.00075; in the series with Saccharomyces cerevisiae [1] (setting [5]) it was 0.661 ± 0.0098; in the series with Saccharomyces cerevisiae [1] (setting [6]), 0.742 ± 0.027; in the series on Saccharomyces cerevisiae [1] (setting [7]), 0.273 ± 0.016; with Saccharomyces cerevisiae [1] (setting [8]), 0.299 ± 0.012. The protein stability index with Saccharomyces cerevisiae [1] (setting [9]) is 0.532 ± 0.034; in the series on Saccharomyces cerevisiae [2] it was 0.375 ± 0.068.
Regarding WFFLFGFVFFFR, the protein stability index in the series with Saccharomyces cerevisiae [1] (setting [3]) turned out to be 0.36 ± 0.059; with Saccharomyces cerevisiae [1] (setting [4]), 0.4002 ± 0.0035; with Saccharomyces cerevisiae [1] (setting [5]), 0.352 ± 0.044; with Saccharomyces cerevisiae [1] (setting [6]) it was 0.475 ± 0.019; in the series on Saccharomyces cerevisiae [1] (setting [7]) it was 0.433 ± 0.018; in the series with Saccharomyces cerevisiae [1] (setting [8]), 0.351 ± 0.039. Moreover, the protein stability index with Saccharomyces cerevisiae [1] (setting [9]) is 0.4444 ± 0.0032; with Saccharomyces cerevisiae [2], 0.411 ± 0.077.
For WFGCSTVWVRVQ, the protein stability index in the series with Saccharomyces cerevisiae [1] (setting [3]) turned out to be 0.286 ± 0.055; in the series with Saccharomyces cerevisiae [1] (setting [4]) it was 0.394 ± 0.0052; in the series on Saccharomyces cerevisiae [1] (setting [5]), 0.328 ± 0.037; with Saccharomyces cerevisiae [1] (setting [6]) it was 0.502 ± 0.0075; in the series with Saccharomyces cerevisiae [1] (setting [7]) it was 0.0767 ± 0.0031; with Saccharomyces cerevisiae [1] (setting [8]), 0.0787 ± 0.024. For the same sequence, the protein stability index worked out at 0.0591 ± 0.021 in the series with Saccharomyces cerevisiae [1] (setting [9]) and 0.147 ± 0.0067 in the series with Saccharomyces cerevisiae [2].
For WFIPRSVCRWLF, the protein stability index in the series with Saccharomyces cerevisiae [1] (setting [3]) stood at 0.515 ± 0.067; in the series with Saccharomyces cerevisiae [1] (setting [4]), 0.684 ± 0.028; in the series on Saccharomyces cerevisiae [1] (setting [5]) it was 0.611 ± 0.023; with Saccharomyces cerevisiae [1] (setting [6]) it was 0.676 ± 0.033; with Saccharomyces cerevisiae [1] (setting [7]), 0.0895 ± 0.017; with Saccharomyces cerevisiae [1] (setting [8]), 0.0735 ± 0.026. Also, the protein stability index with Saccharomyces cerevisiae [1] (setting [9]) worked out at 0.116 ± 0.023; with Saccharomyces cerevisiae [2], 0.135 ± 0.0067.
Take WFSAGSCRWVLC: the protein stability index was 0.58 ± 0.061 with Saccharomyces cerevisiae [1] (setting [3]); 0.71 ± 0.023 in the series with Saccharomyces cerevisiae [1] (setting [4]); 0.543 ± 0.012 in the series on Saccharomyces cerevisiae [1] (setting [5]); 0.709 ± 0.013 in the series with Saccharomyces cerevisiae [1] (setting [6]); 0.126 ± 0.0071 in the series with Saccharomyces cerevisiae [1] (setting [7]); 0.1431 ± 0.00041 in the series with Saccharomyces cerevisiae [1] (setting [8]). For the same sequence, the protein stability index was found to be 0.321 ± 0.027 with Saccharomyces cerevisiae [1] (setting [9]) and 0.24 ± 0.0076 in the series on Saccharomyces cerevisiae [2].
With WGAHRVRVSRIL, the protein stability index is 0.686 ± 0.034 with Saccharomyces cerevisiae [1] (setting [3]); 0.768 ± 0.021 with Saccharomyces cerevisiae [1] (setting [4]); 0.656 ± 0.028 with Saccharomyces cerevisiae [1] (setting [5]); 0.742 ± 0.0081 in the series with Saccharomyces cerevisiae [1] (setting [6]); 0.295 ± 0.003 in the series with Saccharomyces cerevisiae [1] (setting [7]); 0.326 ± 0.043 with Saccharomyces cerevisiae [1] (setting [8]). The values for the protein stability index with Saccharomyces cerevisiae [1] (setting [9]) and with Saccharomyces cerevisiae [2] were 0.516 ± 0.0052 and 0.509 ± 0.016, respectively.
For WLCVFVFGIFFV, the protein stability index with Saccharomyces cerevisiae [1] (setting [3]) came to 0.146 ± 0.016; in the series on Saccharomyces cerevisiae [1] (setting [4]) it was 0.162 ± 0.01; with Saccharomyces cerevisiae [1] (setting [5]) it was 0.179 ± 0.026; in the series on Saccharomyces cerevisiae [1] (setting [6]), 0.2894 ± 0.0021; with Saccharomyces cerevisiae [1] (setting [7]) it was 0.292 ± 0.0061; in the series with Saccharomyces cerevisiae [1] (setting [8]), 0.186 ± 0.016. The protein stability index was determined as 0.266 ± 0.0091 with Saccharomyces cerevisiae [1] (setting [9]) and 0.204 ± 0.016 in the series on Saccharomyces cerevisiae [2].
For the sequence WLFRCFLFVVGG, the protein stability index with Saccharomyces cerevisiae [1] (setting [3]) was found to be 0.39 ± 0.025; in the series with Saccharomyces cerevisiae [1] (setting [4]), 0.441 ± 0.013; in the series with Saccharomyces cerevisiae [1] (setting [5]), 0.371 ± 0.025; in the series with Saccharomyces cerevisiae [1] (setting [6]), 0.46 ± 0.0069; with Saccharomyces cerevisiae [1] (setting [7]) it was 0.413 ± 0.019; in the series with Saccharomyces cerevisiae [1] (setting [8]) it was 0.366 ± 0.016. For the same sequence, the results for the protein stability index in the series with Saccharomyces cerevisiae [1] (setting [9]) and in the series with Saccharomyces cerevisiae [2] were 0.4363 ± 0.0023 and 0.422 ± 0.0045, respectively.
Turning to WLLVVCRGLVFR, the protein stability index stood at 0.227 ± 0.0051 with Saccharomyces cerevisiae [1] (setting [3]); 0.228 ± 0.024 in the series on Saccharomyces cerevisiae [1] (setting [4]); 0.25 ± 0.036 in the series on Saccharomyces cerevisiae [1] (setting [5]); 0.4124 ± 0.0027 in the series on Saccharomyces cerevisiae [1] (setting [6]); 0.329 ± 0.023 in the series on Saccharomyces cerevisiae [1] (setting [7]); 0.236 ± 0.022 in the series with Saccharomyces cerevisiae [1] (setting [8]). Besides, the protein stability index is 0.405 ± 0.018 in the series on Saccharomyces cerevisiae [1] (setting [9]) and 0.319 ± 0.046 with Saccharomyces cerevisiae [2].
On to WQGWFLSLCIWV, for which the protein stability index with Saccharomyces cerevisiae [1] (setting [3]) came to 0.2872 ± 0.0019; in the series with Saccharomyces cerevisiae [1] (setting [4]) it was 0.341 ± 0.0047; with Saccharomyces cerevisiae [1] (setting [5]), 0.3 ± 0.031; with Saccharomyces cerevisiae [1] (setting [6]), 0.404 ± 0.0047; in the series with Saccharomyces cerevisiae [1] (setting [7]) it was 0.317 ± 0.0065; in the series with Saccharomyces cerevisiae [1] (setting [8]) it was 0.296 ± 0.024. The protein stability index with Saccharomyces cerevisiae [1] (setting [9]) was found to be 0.392 ± 0.025; with Saccharomyces cerevisiae [2] it was 0.348 ± 0.014.
